This note sets out measurements from PMC10925418, “Survivin Mediates Mitotic Onset in HeLa Cells Through Activation of the Cdk1-Cdc25B Axis” (Research Square, 2024).

Where no end group is shown, it is not given here.

The labels stand for the following.
B1: His-Cdk1 36–85 (domain or fragment)
chain: not shown
notes: Cdk1, human, residues 36-85, deletion mutant made by PCR; source: E. coli BL21, purified (Ni2+-charged agarose); not shown: His-tag, N-terminal, kept
B2: SUR A55-D70 peptide (peptide)
peptide: AQCFFCFKELEGWEPD
modifications: not fully specified (N-terminus); cysteine pairing not given here
notes: Survivin residues Ala55 through Asp70; the methods describe only one form of the peptide (biotin and tat at the N-terminus); also called Survivin peptide; Survivin A55-D70; source: synthetic peptide (f-BOC chemistry, HPLC purified; Peptron or W. M. Keck Biotechnology Research Center, Yale)
B3: GST-Survivin 1-70 (domain or fragment, UniProt O15392 1-70, looked up)
chain: MGAPTLPPAWQPFLKDHRISTFKNWPFLEGCACTPERMAEAGFIHCPTENEPDLAQCFFCFKELEGWEPD
notes: Survivin residues 1-70, deletion mutant made by PCR; also called Survivin N-terminus (first 70 amino acids); source: E. coli BL21, purified (glutathione agarose); not shown: GST, N-terminal, kept
B4: His-Cdk1 1–85 (domain or fragment)
chain: not shown
notes: Cdk1, human, residues 1-85, deletion mutant made by PCR; source: E. coli BL21, purified (Ni2+-charged agarose); not shown: His-tag, N-terminal, kept

What all share (details): both partners purified
Experiment [1] addresses B2. Put plainly: pull-down; streptavidin-binding assay: 50 ug biotinylated peptide bound to streptavidin agarose, mixed with recombinant His-Cdk1 fragments; Western blotting. On the technique in general: In western blotting, separated proteins are transferred to a membrane and probed.
Experiment [2] addresses B4. The description is as above.
The target in experiment [3] is T1, His-Cdk1 1–183 (human, UniProt P06493 1-183).
T1 construct: source: E. coli BL21, purified (Ni2+-charged agarose); not shown: His-tag, N-terminal, kept
T1 sequence (P06493 1-183): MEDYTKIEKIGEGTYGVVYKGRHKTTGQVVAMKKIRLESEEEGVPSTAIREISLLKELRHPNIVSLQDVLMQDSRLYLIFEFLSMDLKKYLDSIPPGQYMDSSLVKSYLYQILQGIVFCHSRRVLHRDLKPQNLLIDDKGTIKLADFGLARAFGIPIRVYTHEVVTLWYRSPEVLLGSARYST
The experiment is described as above.

Experiment [4] addresses T2, His-Cdk1 9–85 (human, UniProt P06493 9-85).
T2 construct: Cdk1, human, residues 9-85, deletion mutant made by PCR; source: E. coli BL21, purified (Ni2+-charged agarose); not shown: His-tag, N-terminal, kept
The description is as above.

Experiment [5] concerns the target T3, His-Cdk1 (human, UniProt P06493 1-297).
T3 construct: Cdk1, human, full-length cDNA BC014563 subcloned into pRSETa; also called recombinant His-Cdk1; Cdk1 protein kinase; source: E. coli BL21, purified (Ni2+-charged agarose); not shown: His-tag, N-terminal, kept
Nature of the experiment: pull-down; GST pull-down: His-tagged recombinant proteins mixed with GST, GST-Survivin or GST-Survivin mutants; Western blotting.

Experiment [6] has as its target T4, GST-Survivin (UniProt O15392 1-142).
T4 construct: Survivin; the printed peptide 55-70 fits human Survivin; also called recombinant Survivin; pGST-Survivin product; source: E. coli BL21, purified (glutathione agarose); not shown: GST, N-terminal, kept
The experiment is described as above.

T3 sequence (P06493 whole entry): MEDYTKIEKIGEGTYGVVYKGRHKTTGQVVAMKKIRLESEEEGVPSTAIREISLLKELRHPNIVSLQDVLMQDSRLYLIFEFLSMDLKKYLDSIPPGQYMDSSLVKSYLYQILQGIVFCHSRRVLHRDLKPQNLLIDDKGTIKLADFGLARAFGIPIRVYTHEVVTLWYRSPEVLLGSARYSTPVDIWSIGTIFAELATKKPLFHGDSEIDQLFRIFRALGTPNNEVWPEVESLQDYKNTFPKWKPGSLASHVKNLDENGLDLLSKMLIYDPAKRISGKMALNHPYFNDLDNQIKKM
T2 sequence (P06493 9-85): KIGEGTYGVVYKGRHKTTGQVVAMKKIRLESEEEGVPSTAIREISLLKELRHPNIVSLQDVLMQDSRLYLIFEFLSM

As to B1, the binding result in experiment [1] is “binds”.
As for B2, the binding result in experiment [2], in experiment [3] and in experiment [4] was “binds” each time.
For B3, the binding result in experiment [5] is listed as “binds”.
B4: in experiment [6], the binding result is reported as “binds”.
